Measured values taken from publication PMC5777247, “Cohesin SA2 is a sequence-independent DNA-binding protein that recognizes DNA replication and repair intermediates”.
Several values for one entry are separate records, joined by “and”; a condition that tells them apart may be missing. Equal entries are not always repeated.

What was measured:
[1] = biological target: T1, SA2 (STAG2), full length (human, UniProt Q8N3U4 1-1231); assay: AFM; conditions: Anisotropy: 20 mM Hepes pH 7.5, 0.1 mM MgCl2, 0.5 mM DTT, 100 mM KCl, 1 nM DNA, AFM: 20 mM Hepes pH 7.5, 100 mM KCl, 0.1 mM MgCl2, room temperature, 20 min
T1 sequence: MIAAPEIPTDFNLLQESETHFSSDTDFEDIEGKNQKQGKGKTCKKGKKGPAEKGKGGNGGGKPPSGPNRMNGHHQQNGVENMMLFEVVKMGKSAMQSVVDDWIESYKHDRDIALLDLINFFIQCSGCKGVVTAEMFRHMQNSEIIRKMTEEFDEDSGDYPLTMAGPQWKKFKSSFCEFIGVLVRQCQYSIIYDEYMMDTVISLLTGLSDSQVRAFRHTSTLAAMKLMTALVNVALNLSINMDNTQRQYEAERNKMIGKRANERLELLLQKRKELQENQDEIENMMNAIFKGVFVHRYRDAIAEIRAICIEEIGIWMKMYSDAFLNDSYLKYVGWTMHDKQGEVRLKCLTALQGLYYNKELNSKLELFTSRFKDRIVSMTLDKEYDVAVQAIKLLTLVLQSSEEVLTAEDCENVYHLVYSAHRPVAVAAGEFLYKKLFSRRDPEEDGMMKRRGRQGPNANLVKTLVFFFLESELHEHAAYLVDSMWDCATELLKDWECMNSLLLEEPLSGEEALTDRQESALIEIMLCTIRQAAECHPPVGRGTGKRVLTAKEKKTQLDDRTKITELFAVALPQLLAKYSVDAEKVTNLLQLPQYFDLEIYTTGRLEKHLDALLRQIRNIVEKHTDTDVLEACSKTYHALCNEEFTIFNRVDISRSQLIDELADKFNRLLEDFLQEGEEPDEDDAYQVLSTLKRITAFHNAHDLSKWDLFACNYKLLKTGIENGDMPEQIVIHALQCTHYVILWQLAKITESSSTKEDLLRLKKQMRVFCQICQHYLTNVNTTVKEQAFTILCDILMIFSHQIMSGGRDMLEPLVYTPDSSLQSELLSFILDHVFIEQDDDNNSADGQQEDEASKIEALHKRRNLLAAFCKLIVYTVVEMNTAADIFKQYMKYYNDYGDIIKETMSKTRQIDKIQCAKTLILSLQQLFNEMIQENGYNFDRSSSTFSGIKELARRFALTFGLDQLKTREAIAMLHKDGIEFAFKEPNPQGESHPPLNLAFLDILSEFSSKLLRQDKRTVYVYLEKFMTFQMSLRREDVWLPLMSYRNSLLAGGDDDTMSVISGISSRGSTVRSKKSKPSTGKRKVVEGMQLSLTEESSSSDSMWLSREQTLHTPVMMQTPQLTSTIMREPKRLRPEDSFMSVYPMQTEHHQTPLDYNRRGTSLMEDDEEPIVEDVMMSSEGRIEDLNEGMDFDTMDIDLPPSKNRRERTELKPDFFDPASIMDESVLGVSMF

[2] = biological target: His-tagged full-length SA2 (amino acids 1-1231, 141 kDa) (human) (UniProt Q8N3U4); assay: single-molecule fluorescence imaging on DNA tightropes; QD-labeled His-SA2 on DNA tightropes (centromeric, telomeric, gapped) between silica beads, oblique angle TIRF, no buffer flow; encounters of SA2-QDs on DNA followed in kymographs
[3] = biological target: His-tagged full-length SA2 (amino acids 1-1231, 141 kDa) (human) (UniProt Q8N3U4); assay: AFM volume analysis; SA2 incubated with linear DNA substrates in 20 mM Hepes (pH 7.5), 100 mM KCl, 0.1 mM MgCl2 at room temperature for 20 min, deposited on mica; number of SA2 molecules in DNA-bound complexes from the AFM volume calibration curve
[4] = biological target: T1, SA2 (STAG2), full length; assay: fluorescence anisotropy; conditions: Anisotropy: 20 mM Hepes pH 7.5, 0.1 mM MgCl2, 0.5 mM DTT, 100 mM KCl, 1 nM DNA; AFM: 20 mM Hepes pH 7.5, 100 mM KCl, 0.1 mM MgCl2, room temperature, 20 min
[5] = biological target: T2, SA2 1-1051 (human, UniProt Q8N3U4 1-1051); assay: AFM; conditions: Anisotropy: 20 mM Hepes pH 7.5, 0.1 mM MgCl2, 0.5 mM DTT, 100 mM KCl, 1 nM DNA, AFM: 20 mM Hepes pH 7.5, 100 mM KCl, 0.1 mM MgCl2, room temperature, 20 min
T2 sequence: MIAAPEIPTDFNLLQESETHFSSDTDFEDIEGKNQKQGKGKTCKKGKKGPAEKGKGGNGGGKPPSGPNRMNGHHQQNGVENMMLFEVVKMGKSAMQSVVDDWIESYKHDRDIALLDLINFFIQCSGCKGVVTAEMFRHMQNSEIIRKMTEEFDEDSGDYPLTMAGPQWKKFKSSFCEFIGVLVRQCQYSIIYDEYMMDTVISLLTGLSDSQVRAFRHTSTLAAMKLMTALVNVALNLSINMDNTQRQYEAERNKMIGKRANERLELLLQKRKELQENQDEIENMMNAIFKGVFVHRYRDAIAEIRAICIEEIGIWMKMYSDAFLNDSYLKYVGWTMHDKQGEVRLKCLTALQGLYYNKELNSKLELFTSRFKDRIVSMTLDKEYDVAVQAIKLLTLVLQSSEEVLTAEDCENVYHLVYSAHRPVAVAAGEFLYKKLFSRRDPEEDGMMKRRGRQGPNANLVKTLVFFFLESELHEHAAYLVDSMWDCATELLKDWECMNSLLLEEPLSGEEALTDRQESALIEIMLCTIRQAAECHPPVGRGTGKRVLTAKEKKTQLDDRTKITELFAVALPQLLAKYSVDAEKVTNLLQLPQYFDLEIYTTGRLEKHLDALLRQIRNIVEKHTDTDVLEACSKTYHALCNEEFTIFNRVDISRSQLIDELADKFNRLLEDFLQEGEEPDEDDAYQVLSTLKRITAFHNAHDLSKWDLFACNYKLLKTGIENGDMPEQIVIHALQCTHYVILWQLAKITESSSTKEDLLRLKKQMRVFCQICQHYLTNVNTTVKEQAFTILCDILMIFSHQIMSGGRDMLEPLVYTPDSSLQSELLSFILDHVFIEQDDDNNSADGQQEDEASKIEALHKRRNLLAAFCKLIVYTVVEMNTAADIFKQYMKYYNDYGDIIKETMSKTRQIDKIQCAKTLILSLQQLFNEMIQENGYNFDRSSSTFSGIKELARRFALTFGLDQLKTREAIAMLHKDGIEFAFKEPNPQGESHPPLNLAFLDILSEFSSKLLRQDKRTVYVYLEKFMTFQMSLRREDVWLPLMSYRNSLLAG

[6] = biological target: T2, SA2 1-1051; assay: fluorescence anisotropy; Anisotropy: 20 mM Hepes pH 7.5, 0.1 mM MgCl2, 0.5 mM DTT, 100 mM KCl, 1 nM DNA; AFM: 20 mM Hepes pH 7.5, 100 mM KCl, 0.1 mM MgCl2, room temperature, 20 min; conditions: protein: recombinant; tags: 6xHis; label: Alexa 488; blunt
[7] = biological target: T1, SA2 (STAG2), full length; assay: as above; conditions: protein: recombinant, tags: 6xHis
[8] = biological target: T1, SA2 (STAG2), full length; assay: fluorescence anisotropy; uncertain: low saturation; Anisotropy: 20 mM Hepes pH 7.5, 0.1 mM MgCl2, 0.5 mM DTT, 100 mM KCl, 1 nM DNA; AFM: 20 mM Hepes pH 7.5, 100 mM KCl, 0.1 mM MgCl2, room temperature, 20 min; conditions: protein: recombinant; tags: 6xHis; label: 5' Alexa 488
[9] = DNA ends vs internal, no centromere preference

circular replication fork template was tested. Which binding signal ([1]; 55.6% of bound SA2 at fork junction) did it give?
The binding signal was 26 % DNA bound.

Cen-mid DNA was tested. Which binding signal [1, 9] did it give?
The binding signal was 2130 KSP/KNSP.

Which percent of SA2-SA2 encounters on DNA that formed complexes [2] does the source give for “His-tagged full-length SA2 (amino acids 1-1231, 141 kDa) (from UniProt Q8N3U4 1-1231) (natural protein)” here?
Its percent of SA2-SA2 encounters on DNA that formed complexes is 8%.

What about the stoichiometry N (SA2 molecules) [3] of the same molecule?
Its stoichiometry N (SA2 molecules) is 5 and 4.

ds66 telomeric was tested. Which Kd [4] did it give?
The Kd was 88 nM.

How did the binding signal ([1]; fork vs internal) turn out when linear single-stranded fork DNA (AFM) was run?
Its binding signal is 2950 KSP/KNSP.

Which Kd [4] does the source give for replication fork (anisotropy) here?
The Kd was 133 nM.

With Cen-end DNA as the molecule, how does the binding signal [1, 9] read?
Its binding signal is 2600 KSP/KNSP.

linear replication fork DNA (AFM) was tested. Which binding signal ([1]; replication fork vs internal) did it give?
The binding signal was 3150 KSP/KNSP.

With linear flap DNA (AFM) as the molecule, how does the binding signal ([1]; flap vs internal) read?
The binding signal was 4260 KSP/KNSP.

What does the source list for linear gapped DNA?
binding signal ([5]; DNA ends vs internal, substrate for end value inferred): 1690 KSP/KNSP; binding signal ([5]; ssDNA gap vs internal): 1810 KSP/KNSP; binding signal ([1]; ssDNA gap vs internal): 1990 KSP/KNSP

B1: ds66 non-telomeric (Alexa ss66 + ss66-com) (dsDNA)
DNA 1: CTGGATCCGTACAGTGTAAGGGTGAGTGGTTGGGTGTGTGGGTGTTGATGTAGAACAAGAATTCGA
DNA 2: TCGAATTCTTGTTCTACATCAACACCCACACACCCAACCACTCACCCTTACACTGTACGGATCCAG
With B1 as the molecule, how does the Kd [6] read?
The Kd was 198 nM.

And the Kd ([7]; label: Alexa 488, blunt)?
Its Kd is 76.2 ± 3.9 nM.

With TGTCGCATAGTGTAGTCGGTCTTGTTCGGTCATAGCTCATCGTGG (ssDNA) [ss45 (oligo 1)] as the molecule, how does the Kd ([7]; label: 5' Alexa 488) read?
The Kd was 118 ± 5.3 nM.

B2: ds45 (oligo 1 + oligo 2) (dsDNA)
DNA 1: TGTCGCATAGTGTAGTCGGTCTTGTTCGGTCATAGCTCATCGTGG
DNA 2: CCACGATGAGCTATGACCGAACAAGACCGACTACACTATGCGACA
Which Kd ([7]; label: 5' Alexa 488 on strand 1, blunt) does the source give for B2 here?
Its Kd is 175 ± 12.9 nM.

With TGTCGCATAGTGTAGTCGGTCTTGT (ssDNA) [ss25] as the molecule, how does the Kd [8] read?
The Kd was about 445 nM.

With TGTCGCATAGTGTAG (ssDNA) [ss15] as the molecule, how does the Kd [8] read?
The Kd was about 1000 nM.
